Experimental data: paper PMC6486548, “Structure, dynamics and roX2-lncRNA binding of tandem double-stranded RNA binding domains dsRBD1,2 of Drosophila helicase Maleless”

Tests used:
MLE dsRBD2 [1] = biological target: T1, MLE dsRBD2 (UniProt P24785 155-257); experiment: ITC; n=0.70; Filter binding: 20 mM HEPES/NaOH pH 8.0, 150 mM NaCl, 5 mM MgCl2, on ice; ITC: 10 mM HEPES pH 8.0, 75 mM NaCl, 2.5 mM MgCl2, 1 mM b-mercaptoethanol, 20 C; NMR:; conditions: protein: recombinant; tags: N-terminal His6 removed by TEV; blunt, internal A-C mismatch and G-U pairs
MLE dsRBD1,2 [2] = biological target: T2, MLE dsRBD1,2 (UniProt P24785 1-257); experiment: ITC; n=0.84; Filter binding: 20 mM HEPES/NaOH pH 8.0, 150 mM NaCl, 5 mM MgCl2, on ice; ITC: 10 mM HEPES pH 8.0, 75 mM NaCl, 2.5 mM MgCl2, 1 mM b-mercaptoethanol, 20 C; NMR:; conditions: protein: recombinant; tags: N-terminal His6 removed by TEV; blunt, internal A-C mismatch and G-U pairs
MLE dsRBD1 = MLE dsRBD1 (UniProt P24785 1-84); experiment: NMR titration; Filter binding: 20 mM HEPES/NaOH pH 8.0, 150 mM NaCl, 5 mM MgCl2, on ice; ITC: 10 mM HEPES pH 8.0, 75 mM NaCl, 2.5 mM MgCl2, 1 mM b-mercaptoethanol, 20 C; NMR:; conditions: protein: recombinant; tags: N-terminal His6 removed by TEV; blunt, internal A-C mismatch and G-U pairs
MLE dsRBD2 [3] = biological target: T1, MLE dsRBD2; experiment: as above; conditions: protein: recombinant; tags: N-terminal His6 removed by TEV; blunt, internal A-C mismatch and G-U pairs
MLE dsRBD1 K53+54E = MLE dsRBD1 K53+54E (UniProt P24785 1-84, K53E;K54E); experiment: NMR titration; 1.3x RNA; Filter binding: 20 mM HEPES/NaOH pH 8.0, 150 mM NaCl, 5 mM MgCl2, on ice; ITC: 10 mM HEPES pH 8.0, 75 mM NaCl, 2.5 mM MgCl2, 1 mM b-mercaptoethanol, 20 C; NMR:; conditions: protein: recombinant; tags: N-terminal His6 removed by TEV; blunt, internal A-C mismatch and G-U pairs
MLE dsRBD1 K53E = MLE dsRBD1 K53E (UniProt P24785 1-84, K53E); experiment: as above; conditions: protein: recombinant; tags: N-terminal His6 removed by TEV; blunt, internal A-C mismatch and G-U pairs
MLE dsRBD1 K54E = MLE dsRBD1 K54E (UniProt P24785 1-84, K54E); experiment: as above; conditions: protein: recombinant; tags: N-terminal His6 removed by TEV; blunt, internal A-C mismatch and G-U pairs
MLE dsRBD2 [4] = biological target: T1, MLE dsRBD2; experiment: ITC; n=0.93; Filter binding: 20 mM HEPES/NaOH pH 8.0, 150 mM NaCl, 5 mM MgCl2, on ice; ITC: 10 mM HEPES pH 8.0, 75 mM NaCl, 2.5 mM MgCl2, 1 mM b-mercaptoethanol, 20 C; NMR:; conditions: protein: recombinant; tags: N-terminal His6 removed by TEV; hairpin
MLE dsRBD1,2 [5] = biological target: T2, MLE dsRBD1,2; experiment: ITC; n=0.95; Filter binding: 20 mM HEPES/NaOH pH 8.0, 150 mM NaCl, 5 mM MgCl2, on ice; ITC: 10 mM HEPES pH 8.0, 75 mM NaCl, 2.5 mM MgCl2, 1 mM b-mercaptoethanol, 20 C; NMR:; conditions: protein: recombinant; tags: N-terminal His6 removed by TEV; hairpin
MLE dsRBD1,2 [6] = biological target: T2, MLE dsRBD1,2; experiment: filter binding; 5 mM Mg2+; Filter binding: 20 mM HEPES/NaOH pH 8.0, 150 mM NaCl, 5 mM MgCl2, on ice; ITC: 10 mM HEPES pH 8.0, 75 mM NaCl, 2.5 mM MgCl2, 1 mM b-mercaptoethanol, 20 C; NMR:; conditions: protein: recombinant; tags: N-terminal His6 removed by TEV; hairpin
MLE dsRBD2 [7] = biological target: T1, MLE dsRBD2; experiment: as above; conditions: protein: recombinant; tags: N-terminal His6 removed by TEV; hairpin
[8] = biological target: MLE dsRBD1,2 linker deletion (UniProt P24785 1-257, del85-140); experiment: filter binding; affinity similar to dsRBD1,2; Filter binding: 20 mM HEPES/NaOH pH 8.0, 150 mM NaCl, 5 mM MgCl2, on ice; ITC: 10 mM HEPES pH 8.0, 75 mM NaCl, 2.5 mM MgCl2, 1 mM b-mercaptoethanol, 20 C; NMR:; conditions: protein: recombinant; tags: N-terminal His6 removed by TEV; hairpin
MLE dsRBD1,2 [9] = biological target: T2, MLE dsRBD1,2; experiment: NMR titration; severe line broadening; Filter binding: 20 mM HEPES/NaOH pH 8.0, 150 mM NaCl, 5 mM MgCl2, on ice; ITC: 10 mM HEPES pH 8.0, 75 mM NaCl, 2.5 mM MgCl2, 1 mM b-mercaptoethanol, 20 C; NMR:; conditions: protein: recombinant, tags: N-terminal His6 removed by TEV

B1: SL7 18mer duplex (dsRNA)
RNA 1: AGACGUGUAAAAUGUUGC
RNA 2: GUAACGUUUUACGCGCCU
Kd (MLE dsRBD2 [1]): 2.71 ± 0.19 µM | Kd (MLE dsRBD1,2 [2]): 3.18 ± 0.48 µM | Kd (MLE dsRBD1): ~470 µM | Kd (MLE dsRBD2 [3]): ~33 µM | binding result (MLE dsRBD1 K53+54E): no binding | binding result (MLE dsRBD1 K53E): no binding | binding result (MLE dsRBD1 K54E): no binding

GUGUAAAAUGUUGCAAUAUAUAGUAACGUUUUACGC (structured_RNA) [SL7 14merLoop]
Kd (MLE dsRBD2 [4]): 5.92 ± 1.31 µM | Kd (MLE dsRBD1,2 [5]): 4.66 ± 0.71 µM | Kd (MLE dsRBD1,2 [6]): 6.8 µM | Kd (MLE dsRBD2 [7]): ~22 µM | binding result [8]: binds

B2: SL7 23mer duplex (dsRNA)
RNA 1: UUAAAAGACGUGUAAAAUGUUGC
RNA 2: GUAACGUUUUACGCGCCUUUUCC
binding result (MLE dsRBD1,2 [9]; 23 + 23 nt, terminal U-C mismatches, internal A-C mismatch): binds

B3: UR23mer (dsRNA)
RNA 1: UAAAGUGCUUAUAGUGCAGGUAG
RNA 2: ACCUGCACUAUAAGCACUUUAAG
binding result (MLE dsRBD1,2 [9]; 3' overhangs 2 nt on both ends): binds
